From a protein production outcome set (Wang et al. 2014)

Test: label from the status in PepcDB records

| Sequence | protein production |
| --- | --- |
| MFTINTKSQLPIYEQIVQKIKEQVVKGILQEGEKILSIREFASRIGVNPNTVSKAYQELERQEVIVTVKGKGTFIADQTEKNSSPKKLAETKIKLKEIILDLVYLGINVEEIHKLSVEYSQDIIGGDKI | failed |
| MSEFRLTQISDTHLGRRFPGLIANFHRVCEHIDADRPDLVINTGDVSFDGPTSRDDVVFAKGLHDALPVTCRYLPGNHDIGDNPTAIGPAPKPPVSEAYRQQFRDIIGEDHWSFEAAGWCFIGLNTLVMNSGLAFEAAQFDWLTQEIARTNGRPVALFLHKPVFLNLPDDPETPETSIRYVPQPARARLIEMFARVDLRLIASGHVHQRRDFTFRHTRHVWAPSVGFKINDQRQDRIAIKETGLVEYRFRGDSLEVRHLRAAGQIDIDIEEVLLQMGGEH | failed |
| MKDLTQGSIPKHLISMALPMMIGMLIQTLYFIVDLYFVGKLGSAALAGLSLAGNAMFLIFALTQILNVSTAALISHAVGAKDQQDANLTFNQSMMLSTVVGIIVCIIGYFGAQDYLNLISQDSETVMMGLTYLHWFIPCMALQFIMVSISSALRGTGIVKPTMVIQTLSILLNIILSPILITGWGSGYAMGIAGAGFASSLSVIFAVVLLCYYFITTDKYVSVDFSLWHINVPRIKKLLAIGLPAGGEFFLMFVYMGAIYWLIKPFGAEAQAAFGLGSRVMQALFLPAMAIAFAAPAIAGQNFGAQNYQRVRDTFRWTAIMTCSLMAIILLICLSQAEWMLTHFSDDREVILISVAFLQMICWNFVPAGLVFTCSGMFQALGNTMPALLSTATRLITFILPALWLSKQSDFQIEQLWYVSVATVCLQSSVSFYFLKREFKKRLPNDNLSNECSDELNKNKLIT | failed |
| MLERLKRIHYMFWISLIFMIFPILSVVTGWLSAWHLLIDILFVVAYLGVLTTKSQRLSWLYWGLMLTYVVGNTAFVAVNYIWFFFFLSNLLSYHFSVRSLKSLHVWTFLLAQVLVVGQLLIFQRIEVEFLFYLLVILTFVDLMTFGLVRIRIVEDLKEAQVKQNAQINLLLAENERSRIGQDLHDSLGHTFAMLSVKTDLALQLFQMEAYPQVEKELKEIHQISKDSMNEVRTIVENLKSRTLTSELETVKKMLEIAGIEVQVENHLDKSSLTQELESTASMILLELVTNIIKHAKASKVYLKLERTEKELILTVRDDGCGFASISGDELHTVRNRVFPFSGEVSVISQKHPTEVQVRLLYKERK | failed |
| MISGSATASHGRVLLPSQRERRPVSTGSNILRFRETVPRQFSLMMVTKATAKYMGTKMREEKLSEMIEEKVKEATEVCEAEEMSEECRVAWDEVEEVSQARADLRIKLKLLNQDPLESFCQENPETDECRIYED | failed |
| MPSAMNERTVAELEKLLRYIAANLKQRGREILTNYPITPPQFVALQWLLEEGDLTVGELSNKMYLACSTTTDLVDRMERNGLVARVRDEHDRRVVRIRLLEKGERIIEEVIEKRQRDLANVLESFSDEEIVVFERCLRKLHQEMTKE | not failed |
| MMWIPYNQGFHAGPKCLTVVFIYLLNMKVLRHIYRFLMELYGPQGWWPLLDRDTMTLRYHPGDYTPPSDDGDVFEVITGSILTQNTSWDSAASALRNLAAMDALKPHRILSLDDAELEAAIRCAGFYRQKVSYLREMAGFFISLEGSTPSRKELLKVRGVGPETADSVLLYAYRKPEFVVDAYTRRILTHLGLIAGDESYHRIKELFERSLEPDFRVFQEYHALIVRHGKSYYRGRVHGDGDPLEHHHHHH | failed |
| MEKKPWEEDISIEEFKKSLNKDKITNLIIKRRWNKGKSTYHLSFNGDFEVVTKKPSTKYVTHKQLDQKLKEFKQDLMVELHDTFATKADLRDSEARINQKLEALVQVVLLHGEQINKLTQIVEKQGEQIRELQVEQKAQRQEFNARMDRLENLLVESIESTNKRFDSIEGRLDSMDSRLDSMENRLDSIEGRLDSVEGRLDSVEGRLDSMENRLDSMETRLDKIDPPK | failed |
| ACKVLYSLGELNERFVPKTLKERVASIADVHFEHWNKYGDSVTATVNKADKSKDRTYKTECPLEFYDALPRVGEICYAYEIFLEPQFESCEYTEHMYLNLQTPRNYAILLRNKLPRLAEMPLFSNQGKLHVRVANAPLEVIIQNSEQLELLH | failed |
| MRTDDSALKNLGKGRESTTLEMKHRELCSGKTIDLGKKMRRALVLDNIRVQSLQLKIKAMTSSTTEQSVSETQIPLTSGIKLESLNYIVTVELGGKNMSLIVDTGSDLTWVQCQPCRSCYNQQGPLYDPSVSSSYKTVFCNSSTCQDLVAATSNSGPCGGNNGVVKTPCEYVVSYGDGSYTRGDLASESILLGDTKLENFVFGCGRNNKGLFGGSSGLMGLGRSSVSLVSQTLKTFNGVFSYCLPSLEDGASGSLSFGNDSSVYTNSTSVSYTPLVQNPQLRSFYILNLTGASIGGVELKSSSFGRGILIDSGTVITRLPPSIYKAVKIEFLKQFSGFPTAPGYSILDTCFNLTSYEDISIPIIKMIFQGNAELEVDVTGVFYFVKPDASLVCLALASLSYENEVGIIGNYQQKNQRVIYDTTQERLGIVGENCRV | failed |
| MSSTAPASQSTAEALEATASLPQAAVHDHASIMRVIGGIVLCILLAALDQTVVIPAVPAIANDLNGFGHLSWIVTAYLIVSTVTTPLYGKLSDSFGRRRLLMVAISLFILASVACALAQTLPQLILFRALQGLGGGGLMSLAQAAIADVVAPRERGRYQGYLATVWAISSIAGPLVGGWVSDHMSWRWLFWINVPLGLLAMTMCYRGLAHLKPRGGRPQVDWLGALLLAVAIVAFLLAMSWGGEAFAWISPEMAALLAISLVAVLLLAWQERRAADPMLPPRLFRNRAYVMGVGASALAALNIFLCIFALPLHFQLVRDADASMSGLLVVPFLLATVAGNFVVAWLAPRLGRMRVILTIGFVAAAVGLVSLAAVTVAVPTFFVLLAMTIGGIGLGMAMVGTLISVQNALERRDMGAGTGALLVLRSLGSSIGGALAGTLLAMEFRDALARAGVTQALDLGALRHGSEALAHLSPAVRHVLAGGVESGFHLIFAAGAVATIIALLIVRRMPDLELRSSVTEHAAKIHME | failed |
| MSDSPRPSSRPDFWDVRYERDRHLFGAEPNAFVKAEAHRLPPESEVVEVGAGEGRTAAWLAREHGHRVTAVDFSETALKTAQERAEAEHLRLDTVRADVRTWRPDRQWDAAVVTFLQLLPDERPRLYRLLKNSVRSGGWLLAEWLRPAHLTGPYDRMGPSRADRMVPVDEVRRAFADEHLASVEAVDVHLQEGPHLTGDAAVVRGIVQAGAS | failed |
| MVQLDQRVRFKSATSIISIEMWERFSFYGMQALLVYYLYFDVAAGGLGLDQTQATGLVGVYGALLYLCCWAGGWVSDRVLGAEKTLLGGAISVTIGHLVLAGLGGKIGLAIGLGCIAIGSGFVKTAAITVLGSRHGEQEGDAKADPAFQLFYLGINVGALLGPLLTGWLSSRYSFEMGFGAAAVLMIGGLGIYAALRKPMLQSFPLEVKKALLRAQNPAEKHVISTAFAAVAVLCGVLLYLLLTETVSADQLAGALLLVTIGAALWLIIQPLRHPQVSSEEKRKVLAFIPIFVCSTAFWAVQAQTYGVLAVYSQERVDRMVGDFEIPAAWSQSLNPFFILALSIPISLWFMRGSRAPRVKIGISIGVIIAGSGLLVLIPFVGMPLAPVWVLPLSVFLISLGELFIGPGGMAATAHHAPRIFATRFSALYFLTLAIGMSIAGNVSKFYDPTNHTSELRYFAVFGISIIVIGVGSLMVAKKVG | failed |
| MFNAYREYWNNITTMNASATRAQYWWPQLINYLVLGIYSAITGVYRYIEVTPNDGTIIKEWNTVTIIFFLLTALIWLANFTVRARRLHDRDHSNWWILFYLLPFIGTLVIFITLILPSKSHTRWPVNQSEI | failed |
| MRKSFNLIWMVFGFLLLIVGCNEDKKSTAFDPNQPVKFTEFMPDSGGIRTKFIVKGSNFGEDKSQVKVYFKDEVGNEREALVLGVKPDVIYAQVPKQAGGESHVRVEIAGKEAELSNAEKTFKYIVTSSVSTVVGKAKEGGNKDGTLGETTFNTPRYVAVDNDDNVFIFDSDGRTRLSSIEQNKTITLLDGMVIDQPLFIDKEKKQLFGPCDNANFGCFLFDANVSWVADKMGQLLANGGWMHSVVLDPVDSTFVIYRQNTGQLWTQPFDKNRRTLNPNKAKRIGTLYNTGSNGLCAYNPVDKYVYCVLHSKSAVYRFKLTRDADGWPALDGDIDEYIPGAGAGFRDGDVQEAQFKEPRGIAIDKEGNLYIADVGNNRIRKVDTKLNVVTTIAGSGAAGYKDGDPLEAQFNQPWGVYLDKNEFLYIADQNNHCIRKLAIE | failed |
| MDWIESVKSYIKVVEEGSFNAAAYQLNTSGSAISKRINWLEERVGVQLLTRTTRSVHQTEAGLLFYQRARLQLDQWQHLVDETRAINQTPAGLLKIGATLAVGSKFIIKYLDEFLATYPKIKVQLITTLPGQVPEHNVDVFISRELEQLNTFSYKATHLFEHHSGFFASKDYLDKYGTPNNINELKAHNMLIWGERPIKEIKLTNNKRVTLRGNFATTNPEALFHAAKRGMGILLTSQQMVIDDLQSGALVPILPEITTDHTRVNAYYPTLDYEHTRTQLFIKYLKTKLS | failed |
| RERLLSEAKATLQNYVAIAMTAIKPLYDAAAPGDEAARANAIKLLSAVSYGKDGYLFGYDSQVVRIFRSTSPDGLGKSFVDARDANGVYINR | failed |
| EDVSWIKPGQVSWEWWNGATPYGQDVTFKAGCNLETYKYFIDFASKFGIPYIIMDEGWAKSTRDPYTPNPDVDLHELIRYGKEKNVGIVLWLTWLTVEKNFDLFKTFNEWGIKGVKIDFMDRSDQWMVNYYERVAQEAARHHLFVDFHGSFKPAGLEYKYPNVLSYEGVRGMEQMGGCKPENSIYLPFMRNAVGPMDYTPGAMISMQPNIYRSERPNSASIGTRAYQMALFVIFESGLQMLADNPTLYYRNEDCTRFITQVPVTWDET | failed |
| MHVLNILWVVFGIGLMLVLNLKFKINSMVALLVAALSVGMLAGMDLMSLLHTMKAGFGNTLGELAIIVVFGAVIGKLMVDSGAAHQIAHTLLARLGLRYVQLSVIIIGLIFGLAMFYEVAFIMLAPLVIVIAAEAKIPFLKLAIPAVAAATTAHSLFPPQPGPVALVNAYGADMGMVYIYGVLVTIPSVICAGLILPKFLGNLERPTPSFLKADQPVDMNNLPSFGVSILVPLIPAIIMISTTIANIWLVKDTPAWEVVNFIGSSPIAMFIAMVVAFVLFGTARGHDMQWVMNAFESAVKSIAMVILIIGAGGVLKQTIIDTGIGDTIGMLMSHGNISPYIMAWLITVLIRLATGQGVVSAMTAAGIISAAILDPATGQLVGVNPALLVLATAAGSNTLTHINDASFWLFKGYFDLSVKDTLKTWGLLELVNSVVGLIIVLIISMVA | failed |
| SNKLYIGNLSPAVTADDLRQLFGDRKLPLAGQVLLKSGYAFVDYPDQNWAIRAIETLSGKVELHGKIMEVDYSVSKKLRSRKIQIRNIPPHLQWEVLDGLLAQYGTVENVEQVNTDTETAVVNVTYATREEAKIAMEKLSGHQFENYSFKISYIPDEEVSSPSPPQRAQRGDHSSREQGHAPGGTSQARQIDFPLRILVPTQFVGAIIGKEGLTIKNITKQTQSRVDIHRKENSGAAEKPVTIHATPEGTSEACRMILEIMQKEADETKLAEEIPLKILAHNGLVGRLIGKEGRNLKKIEHETGTKITISSLQDLSIYNPERTITVKGTVEACASAEIEIMKKLREAFENDMLAVNQQANLIPGLNLSALGIFSTGLSVLSPPAGPRGAPPAAPYHPFTTHSGYFSSLYPHHQFGPFPHHHSYPEQEIVNLFIPTQAVGAIIGKKGAHIKQLARFAGASIKIAPAEGPDVSERMVIITGPPEAQFKAQGRIFGKLKEENFFNPKEEVKLEAHIRVPSSTAGRVIGKGGKTVNELQNLTSAEVIVPRDQTPDENEEVIVRIIGHFFASQTAQRKIREIVQQVKQQEQKYPQGVASQRSK | not failed |
| MNAENNQTTTTHSKVISHVFCTGTAKLGSVGPPIGLVDIGVSEVAYIFRVSLPGIEKNQDKIKCEIQREGRVCIQGVIPEIAIPSDTGCLYRMQVQQLCPPGPFSITFNLPGQVDPRLFSPNFRSDGIFEVVVVKLGVRIPTS | failed |
